We go through one molecule from publication PMC8159449.

As usually defined, the Kd is the free concentration of one partner at which half of the binding sites on the other are occupied at equilibrium, for simple one-to-one binding. Read a high Kd as weaker binding.

This data set addresses T1, retinoblastoma protein (RB) (Homo sapiens, UniProt P06400 1-928).
T1 sequence: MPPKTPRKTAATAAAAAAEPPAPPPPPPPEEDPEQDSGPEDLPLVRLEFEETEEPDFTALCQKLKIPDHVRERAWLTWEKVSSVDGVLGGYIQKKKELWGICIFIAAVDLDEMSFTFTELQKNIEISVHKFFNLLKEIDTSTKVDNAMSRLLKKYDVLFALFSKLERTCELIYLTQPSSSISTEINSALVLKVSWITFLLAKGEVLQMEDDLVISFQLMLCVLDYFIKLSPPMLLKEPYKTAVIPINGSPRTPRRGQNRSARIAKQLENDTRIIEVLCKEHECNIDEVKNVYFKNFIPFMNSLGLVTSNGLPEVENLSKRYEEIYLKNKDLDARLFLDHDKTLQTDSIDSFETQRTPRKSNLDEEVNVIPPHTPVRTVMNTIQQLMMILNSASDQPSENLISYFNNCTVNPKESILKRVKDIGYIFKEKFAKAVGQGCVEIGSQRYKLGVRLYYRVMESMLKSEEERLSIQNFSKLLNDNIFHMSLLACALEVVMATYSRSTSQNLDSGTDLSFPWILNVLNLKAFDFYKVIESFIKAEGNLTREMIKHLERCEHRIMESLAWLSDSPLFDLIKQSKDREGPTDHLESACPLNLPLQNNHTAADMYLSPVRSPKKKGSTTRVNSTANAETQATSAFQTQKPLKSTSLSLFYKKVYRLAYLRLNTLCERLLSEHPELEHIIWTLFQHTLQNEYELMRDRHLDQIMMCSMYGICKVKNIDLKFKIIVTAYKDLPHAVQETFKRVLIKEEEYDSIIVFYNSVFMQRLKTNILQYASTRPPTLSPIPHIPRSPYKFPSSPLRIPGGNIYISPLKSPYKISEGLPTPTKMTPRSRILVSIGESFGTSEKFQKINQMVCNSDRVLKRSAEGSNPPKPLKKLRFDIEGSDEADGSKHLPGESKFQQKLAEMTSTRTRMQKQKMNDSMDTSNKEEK
The data set can be described thus: ELONA.

B1: 18E16 (structured_RNA)
RNA: GGAGGGUGGAGGGAAGGG
B1 yielded a Kd of 5.1 ± 0.7 nM.
